Source: publication PMC3202535, “A Novel Metagenomic Short-Chain Dehydrogenase/Reductase Attenuates Pseudomonas aeruginosa Biofilm Formation and Virulence on Caenorhabditis elegans” (PLoS ONE, 2011)

Key:
BpiB09 [1] = target: T1, BpiB09 (uncultured bacterium Bio5, UniProt B2BKB1); assay: HPLC-MS of reduction to 3-hydroxy-C12-HSL; assay type: biochemical; conditions: 1 mM NADPH, 100 mM potassium phosphate pH 7.0, 20% DMSO, 30 C, 16 h; 4 mM substrate (5 mM in Results)
T1 construct: about 720 bp gene; His-tag purified from E. coli BL21 DE3 (pET-19b; also cloned in pET-21a); homotetramer
T1 sequence (B2BKB1 entry or part of it): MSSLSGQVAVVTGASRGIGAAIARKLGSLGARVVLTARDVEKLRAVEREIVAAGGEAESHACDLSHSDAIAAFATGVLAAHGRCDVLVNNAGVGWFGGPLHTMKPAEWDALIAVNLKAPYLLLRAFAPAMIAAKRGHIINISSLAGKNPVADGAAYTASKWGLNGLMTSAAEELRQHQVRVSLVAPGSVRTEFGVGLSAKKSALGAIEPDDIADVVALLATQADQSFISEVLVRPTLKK

BpiB09 [2] = target: T1, BpiB09; assay: X-ray crystal structure, […] A; assay type: binding; conditions: 1 mM NADP+ added before crystallisation; 0.1 M citric acid pH 4.5, 1.5 M LiSO4; 292 K; nucleotide site; modelled as partial NADP+, nicotinamide half poorly defined
[3] = target: BpiB09 (soil metagenome (not yet cultivated microbe)); assay: SEC; gel permeation chromatography during purification (data not shown)
[4] = target: BpiB09 (soil metagenome (not yet cultivated microbe)); assay: AUC; analytical ultracentrifugation of recombinant BpiB09 and its mutants; conditions not given
[5] = target: BpiB09 (soil metagenome (not yet cultivated microbe)); assay: crystal structure; BpiB09 with NADP+; crystals from 0.1 M citric acid pH 4.5 and 1.5 M LiSO4 at 292 K; space group I422, four copies per asymmetric unit, tetramer completed by a crystallographic dyad; 2.4 Å

Which “HPLC-MS of reduction to 3-hydroxy-C12-HSL” value (BpiB09 [1]) does the source give for `CCCCCCCCCC(=O)CC(=O)N[C@H]1CCOC1=O` [3-oxo-C12-HSL, N-(3-oxo-dodecanoyl)-L-homoserine lactone] here?
Its value is “analyses of purified enzyme resulted in a turnover of 3-oxo-C12-HSL to 3-hydroxy-C12-HSL”.

For `NC(=O)c1ccc[n+]([C@@H]2O[C@H](COP(=O)(O)OP(=O)(O)OC[C@H]3O[C@@H](n4cnc5c(N)ncnc54)[C@H](OP(=O)(O)O)[C@@H]3O)[C@@H](O)[C@H]2O)c1` [NADP+], which “X-ray crystal structure, 2.4 A” value (BpiB09 [2]) is on record?
Its value is “adding NADP+ prior to crystallization resulted in a higher occupancy of the bound NADP+”.

For BpiB09 (enzyme), which stoichiometry N [3] is on record?
The stoichiometry N was 4.

What about the stoichiometry N [4] of the same compound?
The stoichiometry N was 4.

And the stoichiometry N [5]?
Its stoichiometry N is 4.
